Source: paper PMC5794259, “Novel ATP-cone-driven allosteric regulation of ribonucleotide reductase via the radical-generating subunit” (eLife, 2018)

Columns and labels:
[1] = target: the molecule itself; test: SEC; with 100 µM dATP; Superdex 200 10/300 GL at room temperature; 50 mM Tris-HCl pH 7.6, 150 mM KCl, 10 mM MgCl2; NrdB 10 µM, NrdA at rising concentrations
[2] = target: T1, Leeuwenhoekiella blandensis NrdBi (wild type NrdB, radical-generating subunit of class I ribonucleotide … (Leeuwenhoekiella blandensis sp. nov. …, UniProt A3XHF9 1-427)); test: SEC; with 3 mM ATP in sample and buffer; Superdex 200 PC 3.2/30 at 7°C; 50 mM Tris-HCl pH 8, 50 mM KCl, 10% glycerol, 10 mM magnesium acetate, 2 mM DTT; proteins 20 µM each; eluted fractions analysed by SDS PAGE; details: both partners purified
T1 construct: NrdBi, radical-generating subunit of the class I RNR of Leeuwenhoekiella blandensis sp. nov. strain MED217; GenBank EAQ51288; amplified from genomic DNA with primers from the start codon to the stop codon; ATP-cone 1-103, linker 104-106, core 107-398, C-terminus 399-427; pET-28a(+) construct with N-terminal hexahistidine tag and thrombin site; Oligomeric state depends on nucleotide: dimer with …
T1 sequence (looked up): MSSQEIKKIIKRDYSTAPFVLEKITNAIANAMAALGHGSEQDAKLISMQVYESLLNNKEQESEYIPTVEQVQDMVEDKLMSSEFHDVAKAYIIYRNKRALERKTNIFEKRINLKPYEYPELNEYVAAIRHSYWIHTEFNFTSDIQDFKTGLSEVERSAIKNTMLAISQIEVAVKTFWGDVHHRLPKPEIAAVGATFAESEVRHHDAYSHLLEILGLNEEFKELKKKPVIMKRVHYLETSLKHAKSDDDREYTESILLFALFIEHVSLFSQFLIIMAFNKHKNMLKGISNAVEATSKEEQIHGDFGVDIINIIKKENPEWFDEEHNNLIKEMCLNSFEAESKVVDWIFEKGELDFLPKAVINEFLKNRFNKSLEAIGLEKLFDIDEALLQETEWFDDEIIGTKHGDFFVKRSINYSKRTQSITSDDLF

[3] = target: the molecule itself; test: crystal structure; NrdB 9.6 mg/ml with 20 mM MgCl2, 2 mM TCEP, 5 mM dATP; 0.2 M CaCl2, 0.1 M Tris pH 8.0, 20% PEG 600, 3% 6-aminohexanoic acid, 20°C; space group P1, one tetramer in the unit cell

B1: Leeuwenhoekiella blandensis NrdAi (NrdA, catalytic subunit of class I ribonucleotide reductase) (enzyme, UniProt A3XHF8 1-600, looked up)
chain: MRENTTKLENSTETNVQHTKDNDLLKARRDALQDATEKNTDEPSFDWLTEHSRSFLAAGYLSEGVSAEERIREIADRAEEILRMPGFSDKFYKYMGEGYFSLASPVWSNFGKKRGLPISCFGSHIDDDMGNILYTQSEVGMMSKLGGGTSGYFGKIRHRGAAVKNNGYASGAVHIMQLFDKMVDVVSQGSVRRGRFSPYLPISHPDIKEFLEIGTEGNSIQQLTHGVTVDSTWMQEMIDGDTDKREVWAKVLQRRGEMGYPYIFYTDNANNGKPDVYKDKGHDIYASNLCTEIMLPSSDEWSFVCVLSSINVLHYDKWKNTDAVETMVCFLDAVLTEFIDKLEEYRDSDNRDHRQTFMFMERAYNFAKSNRALGLGVLGWHSLLQSKRHAFDSQEAYDLNSEIFREIKQRSYKASEELAEKFGEPETLKGYGRRNATLNAIAPTTSSAFILGQVSQGIEPIWSNVYVKDIAKIKTTIKNPFLEELFEEKGMNTPEVWRSVRDNDGSVQHLEFLTEQEKDVFKTYAEIDQMAIIYQAANRQNHIDQGQSINLLVHPDMPIKEINKIHITAWKLGLKSLYYQHSMNAAQKFKQKKECVSCEA
notes: NrdAi, catalytic subunit of the class I RNR of Leeuwenhoekiella blandensis sp. nov. strain MED217; amplified from genomic DNA with primers from the start codon to the stop codon; pET-nrdA with N-terminal hexahistidine tag and thrombin site; no cleavage is told for NrdA (theoretical monomer mass printed as 70.6 kDa); source: E. coli BL21(DE3), pET-28a(+), purified (HisTrap Ni Sepharose, gel …)
- stoichiometry N [1]: 2
- stoichiometry N [2]: 1

B2: Leeuwenhoekiella blandensis NrdB, thrombin-cleaved (used for crystallization) (enzyme)
chain: GSHMSSQEIKKIIKRDYSTAPFVLEKITNAIANAMAALGHGSEQDAKLISMQVYESLLNNKEQESEYIPTVEQVQDMVEDKLMSSEFHDVAKAYIIYRNKRALERKTNIFEKRINLKPYEYPELNEYVAAIRHSYWIHTEFNFTSDIQDFKTGLSEVERSAIKNTMLAISQIEVAVKTFWGDVHHRLPKPEIAAVGATFAESEVRHHDAYSHLLEILGLNEEFKELKKKPVIMKRVHYLETSLKHAKSDDDREYTESILLFALFIEHVSLFSQFLIIMAFNKHKNMLKGISNAVEATSKEEQIHGDFGVDIINIIKKENPEWFDEEHNNLIKEMCLNSFEAESKVVDWIFEKGELDFLPKAVINEFLKNRFNKSLEAIGLEKLFDIDEALLQETEWFDDEIIGTKHGDFFVKRSINYSKRTQSITSDDLF
notes: three additional residues (GlySerHis) left at the N-terminus from the thrombin cleavage site; NrdBi of Leeuwenhoekiella blandensis sp. nov. strain MED217; GenBank EAQ51288; Crystallized with 5 mM dATP, 20 mM MgCl2; two dATP per ATP-cone; metal site occupied by Ca2+ from the crystallization medium; also called thrombin-cleaved NrdB; source: E. coli BL21(DE3), purified (HisTrap, gel filtration), …
- stoichiometry N [3]: 4
